Sequences and labels used below:
B1: humanized anti-E-selectin antibody 0841 (antibody, human IgG1, kappa, V domains shown)
VH: EVQLVESGGGLVQPGGSLRLSCAASGYNIRSSYMHWVRQAPGKGLEWVARIDPANGNTIYAEKFKIRFTISADNAKNSAYLQMNSLRAEDTAVYYCAMDLYSTSEYWGQGTLVTVSS
VL: DIQMTQSPSSLSASVGDRVTITCKTSQNINRYLNWYQQKPGKAPKLLIYNANSLQTGVPSRFSGSGSGTDFTLTISSLQPEDFATYFCLQDNSWPLTFGQGTKVEIKR
notes: effector-null human IgG1, kappa
B2: optimized anti-E-selectin antibody 1282 (antibody, human IgG1, kappa, V domains shown)
VH: B1 VH with N28A, S32A, A61V, E62D, K63S, F64V, K65E, I66G
VL: B1 VL with N30E, N50A, N52S, T56S, S93A
notes: as for B1
B3: optimized anti-E-selectin antibody 1448 (antibody, human IgG1, kappa, V domains shown)
VH: B1 VH with N28A, S32A, A61V, E62D, K63S, F64V, I66E
VL: B1 VL with N30E, N50A, N52S, T56S, S93A
notes: as for B1
B4: optimized anti-E-selectin antibody 1444 (antibody, human IgG1, kappa, V domains shown)
VH: B1 VH with N28A, S32A, A61V, E62D, K63S, F64V, K65T, I66G
VL: B1 VL with N30E, N50A, N52S, T56S, S93A
notes: as for B1
B5: optimized anti-E-selectin antibody 1284 (antibody, human IgG1, kappa, V domains shown)
VH: B1 VH with N28A, S32A, A61V, K63S, F64V, K65E, I66G
VL: B1 VL with N30E, N50A, N52S, T56S, S93A
notes: as for B1

Numbering of substitutions follows the chain as printed.

From patent publication US20240076386A1 (Pfizer, published 2024) come the findings set out here.

What is called EC50 is the concentration giving half of the maximal effect. Low readings indicate a more potent agent, high ones a less potent agent.

One test has as its target T1, human E-selectin, cell-surface expressed (human, UniProt P16581 22-610).
T1 construct: also called CHO-human E-selectin cells; human CHO-E
T1 sequence: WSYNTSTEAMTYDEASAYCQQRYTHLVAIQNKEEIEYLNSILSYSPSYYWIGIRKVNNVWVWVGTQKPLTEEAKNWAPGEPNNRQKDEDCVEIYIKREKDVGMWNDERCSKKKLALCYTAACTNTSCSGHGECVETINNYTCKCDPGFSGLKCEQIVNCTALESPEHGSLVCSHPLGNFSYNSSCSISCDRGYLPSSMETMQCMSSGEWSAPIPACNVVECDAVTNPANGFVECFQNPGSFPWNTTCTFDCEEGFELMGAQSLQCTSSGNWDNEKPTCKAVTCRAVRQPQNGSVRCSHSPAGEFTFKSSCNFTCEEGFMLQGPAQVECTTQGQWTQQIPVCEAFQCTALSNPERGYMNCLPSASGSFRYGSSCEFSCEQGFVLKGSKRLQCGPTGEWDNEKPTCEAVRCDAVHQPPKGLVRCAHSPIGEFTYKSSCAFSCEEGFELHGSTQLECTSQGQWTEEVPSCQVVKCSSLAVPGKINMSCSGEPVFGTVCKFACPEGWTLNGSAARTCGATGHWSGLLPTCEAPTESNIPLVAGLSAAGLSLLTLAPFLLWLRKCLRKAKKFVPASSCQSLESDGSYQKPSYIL
In words: flow cytometry, CHO cells. As to the method:
CHO cell lines expressing human E-selectin were detached from confluent flasks using enzyme-free Cell Dissociation Buffer (GIBCO, 13151014). Growth media was immediately added to the detached cells, then centrifuged at 300×g for 5 minutes at room temperature to pellet the cells. The cells were then resuspended in cold CHO buffer consisting of phosphate buffered saline (PBS), pH 7.4 containing bovine serum albumin (BSA; Sigma-Aldrich, A³⁰⁵⁹) at final concentration of 1%, calcium chloride at final concentration of 1 mM, and sodium azide at a final concentration of 0.1%.
Binding studies with CHO cells were performed in duplicate using two rows of a 96-well round bottom plate, whereas, binding studies with primary endothelial cells were performed in a single row of a 96-well V-bottom plate. The plates were centrifuged at 300×g for 2 minutes at 4° C. and the cells were resuspended and blocked by incubation in the CHO buffer for 10 minutes on wet ice. After incubation, the cells were centrifuged at 300×g for 2 minutes at 4° C. to remove the buffer. […] After incubation with the antibody, the cells were washed three times by centrifugation at 300×g for 1 minute at 4° C. and resuspended in cold CHO buffer. The washed cells were resuspended and incubated with 100 μL of 1:1000 dilution of AlexaFluor647-conjugated goat anti-human F(ab′)₂ Fragment (Fcγ fragment specific antibody, [Jackson Innnnunoresearch, 109-606-170] for 45 minutes (CHO cells) or 30 minutes (endothelial cells) on wet ice. The cells were washed three or four times prior to resuspension in CHO buffer for flow cytometric analysis. A Becton Dickinson LSRFortessa instrument using 640 nanometer laser line was used to acquire cell fluorescence data. Geometric mean fluorescence of cells was analyzed by FlowJo software package (FlowJo, LLC) and plotted against antibody concentration. The estimated EC₅₀ values were calculated using nonlinear regression analysis in the Prism suite (GraphPad, version 8).
For B1, a half-maximal effect (EC50) was put at 0.71 nM.
Same read-out and setting: the figure for B2 is 0.85 nM; for B3 it is 0.75 nM; for B4 it is 0.66 nM.
The same measure, in the same setting: the figure for B5 is 0.64 nM.

The target of a further test is T2, soluble recombinant human L-selectin (human, UniProt P14151 39-332, limits assumed).
T2 sequence (looked up): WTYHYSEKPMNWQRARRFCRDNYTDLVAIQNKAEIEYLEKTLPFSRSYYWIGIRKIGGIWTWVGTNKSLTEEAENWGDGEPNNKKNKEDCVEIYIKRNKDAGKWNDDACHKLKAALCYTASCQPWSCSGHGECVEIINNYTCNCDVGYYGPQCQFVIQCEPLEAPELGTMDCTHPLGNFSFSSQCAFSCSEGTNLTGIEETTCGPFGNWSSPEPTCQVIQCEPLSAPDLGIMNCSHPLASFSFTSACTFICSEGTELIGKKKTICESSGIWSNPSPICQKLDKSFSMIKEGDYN
In words: direct binding ELISA on immobilized human L-selectin, absorbance at 450 nm. As to the method: Recombinant histidine tagged human P-, E- or L-selectin (Sino Biologicals), mouse E-selectin (Sino Biologicals), rat E-selectin (Sino Biologicals) and Cynomolgus monkey E-selectin (Sino Biologicals) stock solutions were prepared to a final concentration of 1 μg/mL in phosphate buffered saline without calcium and magnesium. Controls included an L-selectin directed antibody (BioLegend; 304811) or P-selectin directed antibody or a negative control IgG. One hundred μL per well of the diluted recombinant selectin proteins were added into a Ni-NTA HisSorb 96 well plate (Qiagen; 35061). Plates were incubated on an orbital shaker at room temperature for 2 hours. Following the incubation, the plates were washed 3 times with 200 μL of wash buffer (50 mM TRIS [trisaminomethane]; 150 mM sodium chloride; 0.05% polysorbate 20, pH 7.4). To decrease nonspecific binding, plates were treated with 200 μL of blocking buffer (BD Opteia buffer; 555213; BD Biosciences), incubated on an orbital shaker for 1 hour at room temperature and washed as described above. […] One hundred μL specific detection antibodies (described below) were added and incubated for 1 hour: [0556] […] Anti L-selectin and anti-rat-E-selectin antibodies were detected using 1 to 25000 dilution of Peroxidase-conjugated AffiniPure Goat Anti-Mouse IgG (H+L); (Jackson ImnnunoResearch Lab).
Plates were washed and 100 μL per well of 1-Step Ultra TMB substrate (Thermo Scientific) was added and incubated for 5 minutes at room temperature. Reactions were stopped with 100 μL of 2 M sulfuric acid and absorbance read at 450 nm (Spectramax M5e).
Background: ELISA stands for enzyme-linked immunosorbent assay.
For B1, the binding result is on record as “no binding (tested: 10 ug/ml)”.
Turning to B2, the binding result is given as “no binding (tested: 10 ug/ml)”.
B3: the binding result is recorded as “no binding (tested: 10 ug/ml)”.
Take B4: the binding result is on record as “no binding (tested: 10 ug/ml)”.
On the same count and under the same terms, the entry for B5 is “no binding (tested: 10 ug/ml)”.
